The record followed here is PMC9352680, “A comprehensive thermodynamic model for RNA binding by the Saccharomyces cerevisiae Pumilio protein PUF4”.

The target of data set [1] is T1, PUF4 RNA-binding domain (Pumilio homology domain) (Saccharomyces cerevisiae, UniProt P25339 537-888).
T1 sequence: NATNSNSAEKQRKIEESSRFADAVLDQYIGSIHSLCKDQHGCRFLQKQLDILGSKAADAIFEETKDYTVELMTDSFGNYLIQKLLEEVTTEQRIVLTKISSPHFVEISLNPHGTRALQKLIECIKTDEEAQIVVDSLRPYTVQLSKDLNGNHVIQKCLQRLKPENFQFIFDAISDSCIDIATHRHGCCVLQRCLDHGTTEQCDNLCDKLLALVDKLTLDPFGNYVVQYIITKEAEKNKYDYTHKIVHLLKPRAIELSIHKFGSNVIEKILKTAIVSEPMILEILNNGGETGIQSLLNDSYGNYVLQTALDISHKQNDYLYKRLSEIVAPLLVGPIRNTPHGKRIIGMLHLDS
Description: RNA-MaP; ddG 0.613; RNA-MaP: 20 mM Na-HEPES pH 7.4, 0.1% Tween-20, 5% glycerol, 0.1 mg/mL BSA, 2 mM DTT, low salt 0.75 mM MgCl2 + 30 mM KOAc (model data; high salt 2 mM MgCl2 + 100 mM KOAc), 25 C. The note with it: protein: recombinant; tags: C-terminal SNAP tag, Cy3B-labeled; N-terminal His tag removed with TEV; label: array RNA; single-stranded.

The target of data set [2] is T1, PUF4 RNA-binding domain (Pumilio …). The data set is described as follows: RNA-MaP; ddG 1.663; RNA-MaP: 20 mM Na-HEPES pH 7.4, 0.1% Tween-20, 5% glycerol, 0.1 mg/mL BSA, 2 mM DTT, low salt 0.75 mM MgCl2 + 30 mM KOAc (model data; high salt 2 mM MgCl2 + 100 mM KOAc), 25 C. The note with it: protein: recombinant; tags: C-terminal SNAP tag, Cy3B-labeled; N-terminal His tag removed with TEV; label: array RNA; single-stranded.

Data set [3] shares this target. Description: RNA-MaP; ddG 0.934; RNA-MaP: 20 mM Na-HEPES pH 7.4, 0.1% Tween-20, 5% glycerol, 0.1 mg/mL BSA, 2 mM DTT, low salt 0.75 mM MgCl2 + 30 mM KOAc (model data; high salt 2 mM MgCl2 + 100 mM KOAc), 25 C. The note with it: protein: recombinant; tags: C-terminal SNAP tag, Cy3B-labeled; N-terminal His tag removed with TEV; label: array RNA; single-stranded.
Data set [4] has the same target. The data set is described as follows: RNA-MaP; ddG 1.641; RNA-MaP: 20 mM Na-HEPES pH 7.4, 0.1% Tween-20, 5% glycerol, 0.1 mg/mL BSA, 2 mM DTT, low salt 0.75 mM MgCl2 + 30 mM KOAc (model data; high salt 2 mM MgCl2 + 100 mM KOAc), 25 C. The conditions noted are these: protein: recombinant; tags: C-terminal SNAP tag, Cy3B-labeled; N-terminal His tag removed with TEV; label: array RNA; single-stranded.

The target is the same in data set [5]. Description: RNA-MaP; ddG 3.923; RNA-MaP: 20 mM Na-HEPES pH 7.4, 0.1% Tween-20, 5% glycerol, 0.1 mg/mL BSA, 2 mM DTT, low salt 0.75 mM MgCl2 + 30 mM KOAc (model data; high salt 2 mM MgCl2 + 100 mM KOAc), 25 C. The conditions noted are these: protein: recombinant; tags: C-terminal SNAP tag, Cy3B-labeled; N-terminal His tag removed with TEV; label: array RNA; single-stranded.

For data set [6] the target is unchanged. The data set is described as follows: RNA-MaP; ddG 3.256; RNA-MaP: 20 mM Na-HEPES pH 7.4, 0.1% Tween-20, 5% glycerol, 0.1 mg/mL BSA, 2 mM DTT, low salt 0.75 mM MgCl2 + 30 mM KOAc (model data; high salt 2 mM MgCl2 + 100 mM KOAc), 25 C. The note with it: protein: recombinant; tags: C-terminal SNAP tag, Cy3B-labeled; N-terminal His tag removed with TEV; label: array RNA; single-stranded.

Data set [7] shares this target. The data set is described as follows: RNA-MaP; ddG 0.243; RNA-MaP: 20 mM Na-HEPES pH 7.4, 0.1% Tween-20, 5% glycerol, 0.1 mg/mL BSA, 2 mM DTT, low salt 0.75 mM MgCl2 + 30 mM KOAc (model data; high salt 2 mM MgCl2 + 100 mM KOAc), 25 C. The conditions noted are these: protein: recombinant; tags: C-terminal SNAP tag, Cy3B-labeled; N-terminal His tag removed with TEV; label: array RNA; single-stranded.

For data set [8] the target is unchanged. Description: RNA-MaP; ddG 3.533; RNA-MaP: 20 mM Na-HEPES pH 7.4, 0.1% Tween-20, 5% glycerol, 0.1 mg/mL BSA, 2 mM DTT, low salt 0.75 mM MgCl2 + 30 mM KOAc (model data; high salt 2 mM MgCl2 + 100 mM KOAc), 25 C. The conditions noted are these: protein: recombinant; tags: C-terminal SNAP tag, Cy3B-labeled; N-terminal His tag removed with TEV; label: array RNA; single-stranded.

Data set [9] has the same target. Description: RNA-MaP; ddG 1.467; RNA-MaP: 20 mM Na-HEPES pH 7.4, 0.1% Tween-20, 5% glycerol, 0.1 mg/mL BSA, 2 mM DTT, low salt 0.75 mM MgCl2 + 30 mM KOAc (model data; high salt 2 mM MgCl2 + 100 mM KOAc), 25 C. The conditions noted are these: protein: recombinant; tags: C-terminal SNAP tag, Cy3B-labeled; N-terminal His tag removed with TEV; label: array RNA; single-stranded.

Data set [10] has the same target. Description: RNA-MaP; ddG 1.018; RNA-MaP: 20 mM Na-HEPES pH 7.4, 0.1% Tween-20, 5% glycerol, 0.1 mg/mL BSA, 2 mM DTT, low salt 0.75 mM MgCl2 + 30 mM KOAc (model data; high salt 2 mM MgCl2 + 100 mM KOAc), 25 C. The conditions noted are these: protein: recombinant; tags: C-terminal SNAP tag, Cy3B-labeled; N-terminal His tag removed with TEV; label: array RNA; single-stranded.

Data set [11] shares this target. The data set is described as follows: RNA-MaP; ddG 1.591; RNA-MaP: 20 mM Na-HEPES pH 7.4, 0.1% Tween-20, 5% glycerol, 0.1 mg/mL BSA, 2 mM DTT, low salt 0.75 mM MgCl2 + 30 mM KOAc (model data; high salt 2 mM MgCl2 + 100 mM KOAc), 25 C. The note with it: protein: recombinant; tags: C-terminal SNAP tag, Cy3B-labeled; N-terminal His tag removed with TEV; label: array RNA; single-stranded.

Data set [12] shares this target. Description: RNA-MaP; ddG 0.961; RNA-MaP: 20 mM Na-HEPES pH 7.4, 0.1% Tween-20, 5% glycerol, 0.1 mg/mL BSA, 2 mM DTT, low salt 0.75 mM MgCl2 + 30 mM KOAc (model data; high salt 2 mM MgCl2 + 100 mM KOAc), 25 C. The note with it: protein: recombinant; tags: C-terminal SNAP tag, Cy3B-labeled; N-terminal His tag removed with TEV; label: array RNA; single-stranded.
For data set [13] the target is unchanged. Description: EMSA (active-fraction titration); high salt: 2 mM MgCl2, 100 mM KOAc; 69% active protein; RNA-MaP: 20 mM Na-HEPES pH 7.4, 0.1% Tween-20, 5% glycerol, 0.1 mg/mL BSA, 2 mM DTT, low salt 0.75 mM MgCl2 + 30 mM KOAc (model data; high salt 2 mM MgCl2 + 100 mM KOAc), 25 C. The note with it: protein: recombinant; tags: C-terminal SNAP tag, Cy3B-labeled; N-terminal His tag removed with TEV; label: 32P (trace) plus unlabeled; single-stranded.

On to UCUCUUUGUAUAUCAUCUCUU (ssRNA) [S1a K4.1 T8C], for which, in data set [1], the Kd was -11 ± 0.259 kcal/mol (dG=RTlnKd).
For the molecule UCUCUUUGUAUAAAUCUCUU (ssRNA) [S1a K3.1 T7A], the Kd in data set [2] was -9.96 ± 0.7 kcal/mol (dG=RTlnKd).
Take UCUCUUUGUAUAUCUCUCUU (ssRNA) [S1a K3.1 A8C]: the Kd in data set [3] is -10.7 ± 0.225 kcal/mol (dG=RTlnKd).
In the case of UCUCUUUGUAUCUAUCUCUU (ssRNA) [S1a K3.1 A6C], the Kd in [4] was -9.98 ± 0.415 kcal/mol (dG=RTlnKd).
Take UCUCUUGGUAUAUAUCUCUU (ssRNA) [S1a K3.1 T1G]: in [5], the Kd is -7.7 ± 0.635 kcal/mol (dG=RTlnKd).
For the molecule UCUCUUAGUAUAUAUCUCUU (ssRNA) [S1a K3.1 T1A], the Kd in data set [6] was -8.36 ± 0.617 kcal/mol (dG=RTlnKd).
Consider UCUCUUUGUAUAUUUCUCUU (ssRNA) [S1a K3.1 A8T], for which the Kd in [7] was -11.4 ± 0.257 kcal/mol (dG=RTlnKd).
Take UCUCUUCGUAUAUAUCUCUU (ssRNA) [S1a K3.1 T1C]: the Kd in [8] is -8.09 ± 0.575 kcal/mol (dG=RTlnKd).
For UCUCUUUGUAUUUAUCUCUU (ssRNA) [S1a K3.1 A6T], the Kd in data set [9] is -10.2 ± 0.227 kcal/mol (dG=RTlnKd).
Regarding UCUCUUUGUAUAUGUCUCUU (ssRNA) [S1a K3.1 A8G], in data set [10], the Kd is -10.6 ± 0.24 kcal/mol (dG=RTlnKd).
In the case of UCUCUUUGUAUACAUCUCUU (ssRNA) [S1a K3.1 T7C], the Kd in [11] was -10 ± 0.544 kcal/mol (dG=RTlnKd).
Regarding UCUCUUUGUAUAUGAUCUCUU (ssRNA) [S1a K4.1 T8G], the Kd in [12] was -10.7 ± 0.299 kcal/mol (dG=RTlnKd).
For AUGUGUAUAUUAGU (ssRNA) [consensus RNA 14-mer], in [13], the binding result is given as “binds”.
